The source of these data is the Immune Epitope Database (IEDB).

The target in test [1] is HLA-C*14:02. As to the kind of experiment: IEDB peptide-MHC binding, purified MHC/direct/fluorescence; filed as Kd, often an IC50 or EC50 that approximates it; ≥ and ≤ were set here for values at or beyond the usual limits of such assays.
Test [2] deals with HLA-A*02:01. As to the kind of experiment: IEDB peptide-MHC binding, purified MHC/competitive/radioactivity; ≥ and ≤ were set here for values at or beyond the usual limits of such assays.
The target of test [3] is HLA-A*02:01. The test is described as follows: IEDB peptide-MHC binding, purified MHC/competitive/radioactivity; filed as Kd, often an IC50 or EC50 that approximates it; ≥ and ≤ were set here for values at or beyond the usual limits of such assays. The following applies: source organism: Homo sapiens.
In another test the target is HLA-B*83:01. The test is described as follows: IEDB peptide-MHC binding, purified MHC/competitive/fluorescence; filed as Kd, often an IC50 or EC50 that approximates it; ≥ and ≤ were set here for values at or beyond the usual limits of such assays.
For test [4], the target named is HLA-C*14:02. Described as above. Particulars: source organism: Rattus norvegicus.
For a further test, the target named is HLA-B*45:06. The description is as above.
Another test has as its target HLA-B*15:17. The test is described as above.
The target in the next test is HLA-B*27:03. Described as above.
In another test the target is HLA-B*15:42. Described as above.
A further test concerns the target HLA-C*12:03. The test is described as follows: IEDB peptide-MHC binding, purified MHC/direct/fluorescence; filed as Kd, often an IC50 or EC50 that approximates it; ≥ and ≤ were set here for values at or beyond the usual limits of such assays. The following applies: source organism: Rattus norvegicus.
For another test, the target named is HLA-C*03:03. The description is as above.
Test [5] concerns the target HLA-B*07:02. The test is described as above. The following applies: source organism: Mus musculus.
Another test deals with HLA-B*08:01. As to the kind of experiment: IEDB peptide-MHC binding, purified MHC/competitive/fluorescence; ≥ and ≤ were set here for values at or beyond the usual limits of such assays. The following applies: source organism: Zaire ebolavirus.
In test [6] the target is HLA-B*07:02. The test is described as above.
Test [7] concerns the target HLA-B*15:01. Described as above.
Test [8] deals with HLA-A*02:01. The test is described as above.
Test [9] deals with HLA-A*11:01. As to the kind of experiment: IEDB peptide-MHC binding, purified MHC/competitive/fluorescence; filed as Kd, often an IC50 or EC50 that approximates it; ≥ and ≤ were set here for values at or beyond the usual limits of such assays. Particulars: source organism: Dengue virus 2 Thailand/NGS-C/1944.
In another test the target is HLA-A*31:01. The description is as above. Particulars: source organism: Dengue virus 2 Thailand/NGS-C/1944.
Another test deals with HLA-A*24:02. The test is described as follows: IEDB peptide-MHC binding, purified MHC/competitive/fluorescence; ≥ and ≤ were set here for values at or beyond the usual limits of such assays. The following applies: source organism: Variola virus.
The target of test [10] is HLA-A*03:01. The description is as above. Particulars: source organism: Variola virus.
Test [11] has as its target HLA-A*11:01. The description is as above. Particulars: source organism: Variola virus.
Test [12] deals with HLA-B*46:01. The test is described as follows: IEDB peptide-MHC binding, purified MHC/competitive/fluorescence; filed as Kd, often an IC50 or EC50 that approximates it; ≥ and ≤ were set here for values at or beyond the usual limits of such assays. The following applies: source organism: Mycobacterium tuberculosis str. Haarlem.
In the next test the target is HLA-C*05:01. As to the kind of experiment: IEDB peptide-MHC binding, purified MHC/direct/fluorescence; filed as Kd, often an IC50 or EC50 that approximates it; ≥ and ≤ were set here for values at or beyond the usual limits of such assays. Particulars: source organism: Mycobacterium tuberculosis str. Haarlem.
Test [13] has as its target HLA-B*46:01. The test is described as above. The following applies: source organism: Dengue virus 1 Singapore/S275/1990.
Another test deals with HLA-C*15:02. The description is as above. Particulars: source organism: dengue virus type 1.
The target of a further test is HLA-B*15:02. The description is as above. Particulars: source organism: dengue virus type 4.
Test [14] deals with HLA-A*26:01. As to the kind of experiment: IEDB peptide-MHC binding, purified MHC/competitive/radioactivity; filed as Kd, often an IC50 or EC50 that approximates it; ≥ and ≤ were set here for values at or beyond the usual limits of such assays. The following applies: source organism: Dengue virus 1 Brazil/97-11/1997.
Another test concerns the target HLA-B*51:01. As to the kind of experiment: IEDB peptide-MHC binding, purified MHC/competitive/fluorescence; filed as Kd, often an IC50 or EC50 that approximates it; ≥ and ≤ were set here for values at or beyond the usual limits of such assays. The following applies: source organism: Orthohantavirus andesense.
The target in another test is HLA-B*18:01. Described as above. The following applies: source organism: Orthohantavirus andesense.
Test [15] addresses HLA-A*26:01. Described as above.
The target of another test is HLA-B*57:01. The test is described as above. The following applies: source organism: Orthohantavirus andesense.
A further test has as its target HLA-A*69:01. The description is as above. The following applies: source organism: Orthohantavirus andesense.
Another test has as its target HLA-A*29:02. As to the kind of experiment: IEDB peptide-MHC binding, purified MHC/direct/fluorescence; filed as Kd, often an IC50 or EC50 that approximates it; ≥ and ≤ were set here for values at or beyond the usual limits of such assays. The following applies: source organism: Orthohantavirus andesense.
The target of test [16] is HLA-A*03:01. Described as above. Particulars: source organism: Orthohantavirus andesense.
The target of the next test is HLA-A*02:19. The description is as above. Particulars: source organism: Orthohantavirus andesense.
In test [17] the target is HLA-A*24:03. The description is as above. The following applies: source organism: Orthohantavirus andesense.
In test [18] the target is HLA-A*02:01. The test is described as above. Particulars: source organism: Orthohantavirus andesense.
The target of the next test is HLA-A*02:12. The test is described as above. The following applies: source organism: Orthohantavirus andesense.
Another test concerns the target HLA-A*68:02. The test is described as above. Particulars: source organism: Orthohantavirus andesense.
The next test addresses HLA-C*07:02. The description is as above.
The target of test [19] is HLA-B*15:01. As to the kind of experiment: IEDB peptide-MHC binding, purified MHC/competitive/fluorescence; filed as Kd, often an IC50 or EC50 that approximates it; ≥ and ≤ were set here for values at or beyond the usual limits of such assays. Particulars: source organism: Escherichia coli F11.
The next test concerns the target HLA-A*01:01. Described as above. Particulars: source organism: Escherichia coli F11.
The target in test [20] is HLA-A*24:03. Described as above. The following applies: source organism: Escherichia coli F11.
The target in a further test is HLA-C*06:02. The test is described as follows: IEDB peptide-MHC binding, purified MHC/direct/fluorescence; filed as Kd, often an IC50 or EC50 that approximates it; ≥ and ≤ were set here for values at or beyond the usual limits of such assays. The following applies: source organism: Escherichia coli F11.
Setting [21] is: source organism: Rattus norvegicus.
[22] abbreviates: source organism: Zaire ebolavirus.
Where [23] appears, read: source organism: Mycobacterium tuberculosis str. Haarlem.
The mark [24] stands for this setting: source organism: Orthohantavirus andesense.
Setting [25] is: source organism: Escherichia coli F11.

Turning to AARIAGRHM, in the test with HLA-C*14:02 [1] (source organism: Mycobacterium tuberculosis variant bovis BCG str. Pasteur 1173P2), the Kd was found to be 0.654 µM.
As to ARDPHSGHFV, the IC50 in the test with HLA-A*02:01 [2] (source organism: Homo sapiens) was at least 20 µM. Also, the Kd with HLA-A*02:01 [3] was determined as 2.71 µM.
Consider FLRKNQRAL, for which the Kd with HLA-B*83:01 (setting [21]) is at least 5 µM; with HLA-C*14:02 [4], 0.0129 µM; in the test with HLA-B*45:06 (setting [21]), at least 5 µM; with HLA-B*15:17 (setting [21]), at least 20 µM; with HLA-B*27:03 (setting [21]), at least 20 µM; in the test with HLA-B*15:42 (setting [21]), at least 5 µM. The values for the Kd with HLA-C*12:03, with HLA-C*03:03 (setting [21]) and in the test with HLA-B*07:02 [5] were 0.383 µM, 0.052 µM and 0.0009 µM, respectively.
Take GGRRTRREA: the IC50 with HLA-B*08:01 is at least 223 µM; with HLA-B*07:02 [6] (setting [22]) it was at least 120 µM.
GLMHNQDGL: the IC50 with HLA-B*15:01 [7] (setting [22]) was 51.6 µM; with HLA-A*02:01 [8] (setting [22]), 1.58 µM; with HLA-B*07:02 [6] (setting [22]), at least 81.9 µM.
In the case of KTFVDLMRR, the Kd in the test with HLA-A*11:01 [9] stood at 0.0123 µM; with HLA-A*31:01 it was 0.00102 µM.
For KVFLPNPAF, the IC50 was 9.77 µM with HLA-A*24:02; 21 µM in the test with HLA-B*15:01 [7] (source organism: Variola virus); 64.8 µM with HLA-A*03:01 [10]; 40.5 µM with HLA-A*11:01 [11]; 55.1 µM with HLA-A*02:01 [8] (source organism: Variola virus); at least 143 µM with HLA-B*07:02 [6] (source organism: Variola virus).
Consider NLYVSLLLL, for which the IC50 with HLA-A*02:01 [2] (source organism: Hepatitis B virus subtype ayw) was determined as 0.077 µM.
Consider QMVSSVTFI, for which the IC50 with HLA-A*02:01 [2] (source organism: Rhinovirus A) came to 0.2 µM.
Turning to RPVILSLPR, the IC50 in the test with HLA-A*11:01 [11] is at least 122 µM; in the test with HLA-A*02:01 [8] (source organism: Variola virus) it was at least 187 µM; with HLA-B*07:02 [6] (source organism: Variola virus), 15 µM.
As for SLADTNSLAV, the IC50 with HLA-A*02:01 [2] (source organism: Homo sapiens) worked out at 0.0794 µM.
Regarding YAREAGIAM, the Kd in the test with HLA-B*46:01 [12] is at least 20 µM; in the test with HLA-B*83:01 (setting [23]), at least 5 µM; with HLA-B*45:06 (setting [23]), at least 5 µM; in the test with HLA-B*15:42 (setting [23]), at least 5 µM; in the test with HLA-C*03:03 (setting [23]) it was at least 20 µM; in the test with HLA-C*05:01, at least 20 µM.
Regarding YLAGAGLAF, the Kd was 0.118 µM with HLA-B*46:01 [13]; at least 20 µM in the test with HLA-C*15:02; 0.046 µM in the test with HLA-C*14:02 [1] (source organism: dengue virus type 1); 0.003 µM with HLA-B*15:02; 0.401 µM with HLA-A*26:01 [14].
With YLIPSVTSL, the Kd in the test with HLA-B*51:01, with HLA-B*18:01, in the test with HLA-B*15:17 (setting [24]), with HLA-A*26:01 [15] (setting [24]), with HLA-B*57:01 and in the test with HLA-B*27:03 (setting [24]) was at least 20 µM in each case. For the same sequence, the Kd is at least 20 µM in the test with HLA-A*69:01; at least 20 µM in the test with HLA-A*29:02; at least 20 µM in the test with HLA-A*03:01 [16]; at least 20 µM in the test with HLA-A*02:19; at most 0.001 µM in the test with HLA-C*03:03 (setting [24]); at least 20 µM with HLA-A*24:03 [17]. Also, the Kd is 0.0018 µM with HLA-A*02:01 [18], at least 20 µM with HLA-A*02:12 and at least 20 µM with HLA-A*68:02.
Consider YRHKNYYAL, for which, in the test with HLA-C*07:02 (source organism: Vaccinia virus), the Kd came to 0.057 µM.
On to YTLNNGGAF, for which the equilibrium dissociation constant (Kd) in the test with HLA-B*15:01 [19] is 0.0594 µM; with HLA-A*01:01, at least 20 µM; with HLA-A*24:03 [20], 0.0151 µM; with HLA-A*26:01 [15] (setting [25]), 0.0927 µM; with HLA-C*07:02 (setting [25]), 0.991 µM; in the test with HLA-C*06:02, at least 20 µM.
